This passage reports koff, kon and Kd results from patent publication WO2001085789A2 (dated 2001).

In assay [1] the target is T1, Ryk-Fc fusion protein (human).
T1 chain: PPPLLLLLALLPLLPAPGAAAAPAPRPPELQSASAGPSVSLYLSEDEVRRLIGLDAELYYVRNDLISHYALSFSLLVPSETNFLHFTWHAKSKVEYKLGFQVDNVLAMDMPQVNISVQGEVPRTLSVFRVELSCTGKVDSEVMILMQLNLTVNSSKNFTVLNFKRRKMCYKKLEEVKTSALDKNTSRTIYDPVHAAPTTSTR
Nature of the assay: SPR, BIACORE 2000, 25 C; scFv 1B4 amine coupled to CM5 chip, Ryk-Fc 30 to 242 nM injected; global fit A + B = AB.

Assay [2] deals with T1, Ryk-Fc fusion protein. Nature of the assay: SPR, BIACORE 2000, 25 C; scFv 1B4 amine coupled to CM5 chip, Ryk-Fc 30 to 242 nM injected; KD = koff/kon.

B1: anti-Ryk scFv 1B4 antibody (scFv, V domains shown)
VH: EVQLVQSGAEVKKPGSSVKVSCKASGGTFSSYAISWVRQAPGQGLEWMGGIIPIFGTANYAQKFQGRVTITADESTSTAYMELSSLRSEDTAVYYCARSYYDWFDYWGQGTLVTVSS
VL: IVLTQPPSVSGAPGQRVTISCSGSSSNIGSNYVSWYQQLPGTAPKLLIYDNNQRPSGVPDRFSGSKSGTSASLAITGLQSEDEADYYCQSWDSIAQIVFGGGTKLTVL
One may read the koff as the rate constant with which the complex falls apart. For orientation: kon means the rate constant with which the complex forms. In general, Kd refers to the equilibrium constant for the complex coming apart. Read a high Kd as weaker binding. Regarding B1, in assay [1], the off-rate (koff) turned out to be 0.00067 s⁻¹ and the kon came to 50000 M⁻¹ s⁻¹. The affinity in assay [2], expressed as Kd, was 13.3 nM.
